Article PMC4300558 (Cell Communication and Signaling : CCS, 2015)
Read-outs that look alike come from different tables or passages of the source. One block for each molecule: values may come before it.

Experiments:
[1] = target: prolactin receptor (Homo sapiens) (UniProt P16471); conditions: cited from earlier work
[2] = target: prolactin receptor (Homo sapiens) (UniProt P16471); conditions: cited from earlier work; remark: listed apart in the source
[3] = target: T1, extracellular domain of the human prolactin receptor (human, UniProt P16471, biotin (site not stated; in the phage ELISA)); test: SPR; Biacore 2000; dissociation constant calculated from the on and off rates; conditions: both partners purified
T1 construct: prolactin receptor, human, extracellular domain (two tandem fibronectin domains FN1 and FN2); No methods in the main text; also called hPRL-R; hPRL-R ECD

[4] = target: T2, extracellular domain of the human prolactin receptor (human, UniProt P16471 25-234, biotin (site not stated; in the phage ELISA)); test: ELISA; competition with phage-displayed sAB A8
T2 chain: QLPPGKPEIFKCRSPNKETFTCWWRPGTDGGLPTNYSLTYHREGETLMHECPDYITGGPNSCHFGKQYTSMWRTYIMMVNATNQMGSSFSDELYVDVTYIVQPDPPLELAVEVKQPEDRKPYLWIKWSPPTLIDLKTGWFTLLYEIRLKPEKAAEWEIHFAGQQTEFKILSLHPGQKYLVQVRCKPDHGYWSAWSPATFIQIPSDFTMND

[5] = target: T2, extracellular domain of the human …; test: ELISA; competition with phage-displayed sAB A9
[6] = target: T2, extracellular domain of the human …; test: ELISA; competition with phage-displayed sAB A10
[7] = target: T3, extracellular domain of the human prolactin receptor (human, UniProt P16471 25-234, biotin (site not stated; in the phage ELISA)); test: ELISA; competition phage ELISA; biotinylated receptor immobilised on streptavidin plates; hGH or PRL titrated against phage-displayed sAB; conditions: both partners purified
T3 construct: prolactin receptor, human, extracellular domain (two tandem fibronectin domains FN1 and FN2); No methods in the main text; also called hPRL-R; hPRL-R ECD
T3 sequence (looked up): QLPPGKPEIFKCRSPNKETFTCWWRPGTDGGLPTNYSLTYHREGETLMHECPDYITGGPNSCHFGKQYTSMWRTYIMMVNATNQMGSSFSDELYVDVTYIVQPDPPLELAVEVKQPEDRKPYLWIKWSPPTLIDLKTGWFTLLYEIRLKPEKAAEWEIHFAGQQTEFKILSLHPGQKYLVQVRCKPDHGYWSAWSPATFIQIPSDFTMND

Molecule: prolactin (from UniProt P01236)
Kd [1]: 6 nM

Molecule: growth hormone (from UniProt P01241)
Kd [2]: 1 nM

Kd [3]: 5.6 nM
koff [3]: 0.00054 s⁻¹
kon [3]: 96000 M⁻¹ s⁻¹
B1: synthetic antibody (sAB) A8 (Fab, V domains shown)
VH: EVQLVESGGGLVQPGGSLRLSCAASGFNFSSSSMHWVRQAPGQGLEWVAYISPYYGSTSYADSVKGRFTISADTSKNTAYLQMNSLRAEDTAVYYCARSYGYVYWNAYSSGMDYWGQGTLVTVSS
VL: DIQMTQSPSSLSASVGDRVTITCRASQSVSSAVAWYQQKPGKAPKLLIYSASSLYSGVPSRFSGSRSGTDFTLTISSLQPEDFATYYCQQYYSYYYPFTFGQGTKVEIK
notes: Fab scaffold before loop H1; heavy chain loop 1 (H1), randomized loop; Fab scaffold between H1 and H2; heavy chain loop 2 (H2), randomized loop; Fab scaffold between H2 and H3; heavy chain loop 3 (H3), randomized loop; Fab scaffold after H3 (rest of VH and CH1); Fab scaffold before loop L3; light chain loop 3 (L3), randomized loop; Fab scaffold after L3 (rest of VL and CL); Only the four …

IC50 [4]: 11 nM
IC50 [5]: 13 nM
IC50 [6]: 9 nM
binding result [7]: binds
B2: human prolactin (ligand, UniProt P01236 29-227, looked up)
chain: LPICPGGAARCQVTLRDLFDRAVVLSHYIHNLSSEMFSEFDKRYTHGRGFITKAINSCHTSSLATPEDKEQAQQMNQKDFLSLIVSILRSWNEPLYHLVTEVRGMQEAPEAILSKAVEIEEQTKRLLEGMELIVSQVHPETKENEIYPVWSGLPSLQMADEESRLSAYYNLLHCLRRDSHKIDNYLKLLKCRIIHNNNC
notes: prolactin, human; Labelled with cy5 in the internalization experiment; also called hPRL; PRL
